The sequences below were run on Escherichia coli TOP10 (assay: shrunken log2 fold change of peptide-encoding DNA abundance (4.5 h post-induction vs induction); higher = less antimicrobial activity (less host growth inhibition)). Details: time post-induction: 4.5 h; library: site-saturation at positions 5, 18, 19, 20.
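Also: peptides expressed intracellularly from a pBAD plasmid library in pooled LB shake-flask culture, induced with 0.3% L-arabinose, DNA abundance read by NGS, three biological replicates, DESeq2 with apeglm shrinkage.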

Row | Sequence | shrunken log2 fold change
1 | RRIRHRPPRLPRPRPRPQDVPRP | 0.0527
2 | RRIRDRPPRLPRPRPRPITSPRP | -0.00293
3 | RRIRIRPPRLPRPRPRPRVAPRP | 0.386
4 | RRIRPRPPRLPRPRPRPLPGPRP | 0.02
5 | RRIRHRPPRLPRPRPRPLRCPRP | 0.0647
6 | RRIRDRPPRLPRPRPRPPGDPRP | 1.29
7 | RRIRQRPPRLPRPRPRPIHWPRP | -0.198
8 | RRIRARPPRLPRPRPRPATAPRP | 0.452
9 | RRIRERPPRLPRPRPRPSPDPRP | -0.185
10 | RRIRCRPPRLPRPRPRPCTPPRP | -0.778
11 | RRIRARPPRLPRPRPRPHFEPRP | 0.703
12 | RRIRSRPPRLPRPRPRPYWVPRP | -0.314
13 | RRIRIRPPRLPRPRPRPMSPPRP | 0.111
14 | RRIRMRPPRLPRPRPRPHRRPRP | 0.0631
15 | RRIRPRPPRLPRPRPRPRKQPRP | 0.0406
16 | RRIRARPPRLPRPRPRPGHNPRP | -0.0862
17 | RRIRPRPPRLPRPRPRPGIYPRP | -0.133
18 | RRIRNRPPRLPRPRPRPYHRPRP | -0.121
19 | RRIRRRPPRLPRPRPRPLERPRP | 0.0981
20 | RRIRMRPPRLPRPRPRPYLHPRP | -0.437
21 | RRIRQRPPRLPRPRPRPTPWPRP | 0.619
22 | RRIRHRPPRLPRPRPRPSGTPRP | -0.0258
23 | RRIRSRPPRLPRPRPRPKFTPRP | -0.436
24 | RRIRLRPPRLPRPRPRPKPKPRP | 0.607
25 | RRIRERPPRLPRPRPRPMGAPRP | 0.0638

Row | Sequence | shrunken log2 fold change
26 | RRIRVRPPRLPRPRPRPTRVPRP | 0.0936
27 | RRIRLRPPRLPRPRPRPRYPPRP | 0.318
28 | RRIRDRPPRLPRPRPRPMSKPRP | 0.101
29 | RRIRGRPPRLPRPRPRPTEYPRP | -0.0607
30 | RRIRCRPPRLPRPRPRPPDRPRP | 0.394
31 | RRIRIRPPRLPRPRPRPWQCPRP | 0.034
32 | RRIRTRPPRLPRPRPRPDYVPRP | -0.0882
33 | RRIRFRPPRLPRPRPRPATGPRP | 1.21
34 | RRIRYRPPRLPRPRPRPDKHPRP | -0.692
35 | RRIRPRPPRLPRPRPRPMLSPRP | 0.0181
36 | RRIRERPPRLPRPRPRPTRPPRP | 0.461
37 | RRIRPRPPRLPRPRPRPVYGPRP | -0.486
38 | RRIRERPPRLPRPRPRPSVLPRP | -0.312
39 | RRIRHRPPRLPRPRPRPEDEPRP | 0.0969
40 | RRIRLRPPRLPRPRPRPYLAPRP | -0.756
41 | RRIRIRPPRLPRPRPRPIWWPRP | 0.0713
42 | RRIRSRPPRLPRPRPRPEDVPRP | 0.183
43 | RRIRCRPPRLPRPRPRPIWDPRP | 0.166
44 | RRIRLRPPRLPRPRPRPVYVPRP | -0.367
45 | RRIRARPPRLPRPRPRPAYDPRP | 0.00165
46 | RRIRGRPPRLPRPRPRPKWEPRP | 1.13
47 | RRIRFRPPRLPRPRPRPMPYPRP | -0.218
48 | RRIRCRPPRLPRPRPRPYWFPRP | -0.74
49 | RRIRIRPPRLPRPRPRPFEPPRP | -0.204
50 | RRIRSRPPRLPRPRPRPNHSPRP | -0.736
